Where a chain is given by its changes, count along the chain named.
Tests used:
[1] = molecular target: T1, CTLA-4-hFc (immunogen A; hFc-labeled CTLA-4 extracellular domain protein) (human, UniProt P16410 36-161); assay: blocking assay, CTLA-4 protein, competitor B7.2
T1 construct: range 36-161; Made in HEK293 cells, purified on protein A; also called CLTA-4-hFc; CTLA-4 protein; not shown: human IgG Fc fragment (hFc) of the pCpC vector
T1 sequence (looked up): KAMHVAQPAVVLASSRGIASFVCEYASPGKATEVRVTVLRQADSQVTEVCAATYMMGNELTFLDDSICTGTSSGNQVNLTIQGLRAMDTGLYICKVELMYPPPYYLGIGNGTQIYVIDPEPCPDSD
Protocol: (§1) CTLA-4 extracellular domain protein (CTLA-4-hFc) was diluted with PBS to a final concentration of 1.0 μg/mL, and then added to a 96-well ELISA plate as 100 μl per well. The plate was covered with a plastic film and incubated overnight at 4° C. The plate was washed twice with plate washing solution [PBS containing 0.01% (v/v) Tween 20] on the next day, and added with blocking solution [PBS containing 0.01% (v/v) Tween 20 and 1% (w/w) BSA] and blocked at room temperature for 2 hours. […] After 2 hours, the plate was washed 3 times with a plate washing solution [PBS containing 0.01% (v/v) Tween 20]. HRP (horseradish peroxidase) labeled avidin diluent (purchased from Sigma) was added 100 microliters per well, and after the plate was incubated for 2 hours at 37° C., it was washed with plate washing solution [PBS containing 0.01% (v/v) Tween 20] for 3 times. […] TMB substrate was added to each well. After incubated at room temperature for 30 minutes, the plate was added with […] stop solution (1.0N HCl) to each well. An ELISA plate reader (SpectraMax 384plus, Molecular Device) was used to read the A450 nm value.

[2] = molecular target: T2, human CTLA-4 (Y201V), full length, on transfected cells (human, UniProt P16410 36-223); assay: FACS, human CTLA-4 expressing cells
T2 construct: whole, on cells; also called hCTLA-4; HEK293-hCTLA-4 (Y201V)
T2 sequence (looked up): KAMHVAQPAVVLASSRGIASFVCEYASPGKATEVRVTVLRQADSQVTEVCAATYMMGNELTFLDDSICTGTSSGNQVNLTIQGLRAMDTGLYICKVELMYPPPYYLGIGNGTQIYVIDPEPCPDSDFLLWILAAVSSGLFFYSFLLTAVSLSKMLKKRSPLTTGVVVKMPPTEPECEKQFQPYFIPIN

[3] = molecular target: T3, recombinant His-labeled hCTLA-4 ECD protein (human, UniProt P16410 36-161); assay: SPR Biacore T200, antibody captured by anti-human Fc, 1:1 model
T3 construct: extracellular domain; also called human CTLA-4 ECD; not shown: His label
T3 sequence (looked up): T1 sequence (looked up)
Protocol: Anti-human Fc IgG was fixed on flow cell 1 and 2. HBS-EP+ (10 mmol/L HEPES, 150 mmol/L NaCl, 3 mM EDTA, 0.05% P20, pH 7.4) was used as the running buffer, and anti-human Fc IgG was fixed using the fixing wizard template. The flow cells 1 and 2 connected in series with S CM5 sensor chip were activated with freshly mixed 50 mmol/L NHS and 200 mmol/L EDC. Anti-human Fc IgG was diluted to […] with 10 mmol/L NaAC (pH 4.5) and injected into activated flow cells 1 and 2. The remaining active coupling sites were blocked with 1 mol/L ethanolamine.
The recombinant His-labeled hCTLA-4 ECD protein was diluted to 50 nmol/L, and then serially diluted 4 times with HBS-EP+ buffer at a 2-fold ratio. […] Each antibody was injected into the CM5 sensor flow cell 2 at a flow rate of 10 μL/min to achieve a response of 230 RU. Then the prepared His-labeled hCTLA-4ECD protein was injected into flow cells 1 and 2 at a flow rate of 30 μL/min for 180 seconds. The buffer flow was maintained for 400 seconds for dissociation measurement (30 μL/min). To remove the tested antibody from the surface, 10 mmol/L glycine-HCl pH1.5 was injected for 20 seconds (30 μL/min). Flow cell 1 was used as a reference flow cell. The above steps were repeated for each concentration of serially diluted His-labeled CTLA-4ECD protein. The KD value of each antibody was evaluated using Biacore T200 evaluation software 1.0, and a 1:1 binding model was used to fit the data.

[4] = molecular target: T1, CTLA-4-hFc (immunogen A; hFc-labeled …); assay: receptor-ligand blocking assay: CTLA-4 protein, antibody titrated, blocked ligand B7.1, inhibition (%)
Protocol: as §1

[5] = molecular target: T4, CTLA-4 on human T lymphocytes (PBMC, CD3+ T cells) (human, UniProt P16410 36-223); assay: cell-based or functional assay
T4 sequence (looked up): T2 sequence (looked up) with V166Y

[6] = molecular target: T1, CTLA-4-hFc (immunogen A; hFc-labeled …); assay: blocking assay, CTLA-4 protein, competitor B7.1
Protocol: as §1

% Block at 0.000128 nM [1]: 0% | % Block at 0.0128 nM [1]: 25% | % Block at 0.064 nM [1]: 36.7% | % Block at 0.32 nM [1]: 78.5% | % Block at 1.6 nM [1]: 98.7% | % Block at 8 nM [1]: 99.2% | % Block at 40 nM [1]: 99.2% | % Block at 200 nM [1]: 99.2% | MFI at 0.000128 nM [2]: 3 | MFI at 0.0128 nM [2]: 23 | MFI at 0.064 nM [2]: 67 | MFI at 0.32 nM [2]: 203 | MFI at 1.6 nM [2]: 509 | MFI at 8 nM [2]: 827 | MFI at 40 nM [2]: 1040 | MFI at 200 nM [2]: 1060 | Kd [3]: 2.52 nM | koff [3]: 0.00187 s⁻¹ | kon [3]: 744000 M⁻¹ s⁻¹ | IC50 (read off the curve) [4]: ~2 nM | IL-2 secretion, pg/ml, at 0.13 ug/ml, N = 1 [5]: 1570 pg/mL | IL-2 secretion, pg/ml, at 0.13 ug/ml, N = 2 [5]: 1390 pg/mL | IL-2 secretion, pg/ml, at 0.37 ug/ml, N = 1 [5]: 2810 pg/mL | IL-2 secretion, pg/ml, at 0.37 ug/ml, N = 2 [5]: 1860 pg/mL | IL-2 secretion, pg/ml, at 1.1 ug/ml, N = 1 [5]: 3610 pg/mL | IL-2 secretion, pg/ml, at 1.1 ug/ml, N = 2 [5]: 2930 pg/mL | IL-2 secretion, pg/ml, at 3.3 ug/ml, N = 1 [5]: 4860 pg/mL | IL-2 secretion, pg/ml, at 3.3 ug/ml, N = 2 [5]: 3490 pg/mL | IL-2 secretion, pg/ml, at 10 ug/ml, N = 1 [5]: 6670 pg/mL | IL-2 secretion, pg/ml, at 10 ug/ml, N = 2 [5]: 5200 pg/mL | IL-2 secretion, pg/ml, at 30 ug/ml, N = 1 [5]: 7240 pg/mL | IL-2 secretion, pg/ml, at 30 ug/ml, N = 2 [5]: 6590 pg/mL | % Block at 0.000128 nM [6]: 0% | % Block at 0.0128 nM [6]: 5.3% | % Block at 0.064 nM [6]: 21.4% | % Block at 0.32 nM [6]: 65.1% | % Block at 1.6 nM [6]: 93.7% | % Block at 8 nM [6]: 98.1% | % Block at 40 nM [6]: 98.9% | % Block at 200 nM [6]: 99.3%
B1: 92C8B6 fully human CTLA-4 antibody (human IgG1, kappa) (antibody, V domains shown)
VH: QVQLVESGGGVVQPGRSLRLSCAASGFTFSNFGMHWVRQAPGKGLEWVAVIWYDGSNKYYADSVKGRFTISRDNSKNTLFLQMNGLRAEDTAVYYCAKGGILMAGTLDYWGQGTLVTVSS
VL: DIQMTQSPSSLSASVGDRVTITCRASQSVSTYLNWYQQKPGKAPKLLIYAASSFQSGVPSRFSGSGSGTDFTLTISSLQPEDFATYFCQQSYSTPFTFGPGTKVDIK
notes: also called mAb42; mAb042

Reference: patent US20210324080A1 (JIANGSU HUAIYU PHARMACEUTICAL, published 2021)
